Tested on: YBX1 cold shock domain (MST)
Assay: MST
Settings: not given in the material (MST and pull-down methods text missing)

unmethylated ENO1 RNA oligo (MST)
Kd: 10.1 µM
